Laboratory results taken from WO2016008851A1 (dated 2016).

Experiments:
recombinant mouse IL-1B = recombinant mouse IL-1B (mouse, UniProt P10749 118-269); assay: cell-based or functional assay
recombinant human IL-1B [1] = biological target: T1, recombinant human IL-1B (human, UniProt P01584 117-269); assay: cell-based or functional assay
[2] = biological target: Endogenous human IL-1B (THP1 supernatants) (human, UniProt P01584 117-269); assay: cell-based or functional assay
[3] = biological target: recombinant cynomolgus IL-1B (cynomolgus, UniProt P79182 117-268, limits assumed); assay: cell-based or functional assay
recombinant human IL-1B [4] = biological target: T1, recombinant human IL-1B; assay: Kinexa, solution equilibrium titration of hIL-1B against 10 pM antibody; mean ± SEM (N = 3)
recombinant human IL-1B [5] = biological target: T1, recombinant human IL-1B; assay: Kinexa

recombinant mouse IL-1B, sequence (P10749 118-269 limits assumed): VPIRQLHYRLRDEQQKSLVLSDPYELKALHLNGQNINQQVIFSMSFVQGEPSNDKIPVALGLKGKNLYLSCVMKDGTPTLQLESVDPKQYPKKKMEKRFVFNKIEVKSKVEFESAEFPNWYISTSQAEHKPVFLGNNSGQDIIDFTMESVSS
recombinant cynomolgus IL-1B, sequence (P79182 117-268 limits assumed): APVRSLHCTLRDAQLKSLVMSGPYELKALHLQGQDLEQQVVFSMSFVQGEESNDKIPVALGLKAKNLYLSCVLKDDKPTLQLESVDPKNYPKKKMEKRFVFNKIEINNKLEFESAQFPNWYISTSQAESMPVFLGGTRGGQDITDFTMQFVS

| IC50, mouse IL-1 B-induced KC release, mouse endothelial bEnd3 cells stimulated with 15 pM recombinant mouse IL-1 B (recombinant mouse IL-1B) | IC50, rec. human IL-1 B, HEK blue (recombinant human IL-1B [1]) | IC50, rec. human IL-1 B, MRC-5 (IL-6 production) (recombinant human IL-1B [1]) | IC90, rec. human IL-1 B, HEK blue (recombinant human IL-1B [1]) | IC90, rec. human IL-1 B, MRC-5 (IL-6 production) (recombinant human IL-1B [1]) | IC50, Endogenous human IL-1 B (THP1 supernatants), HEK blue [2] | IC90, Endogenous human IL-1 B (THP1 supernatants), HEK blue [2] | IC50, rec. cyno IL-1 B, HEK blue [3] | IC90, rec. cyno IL-1 B, HEK blue [3] | Kd (recombinant human IL-1B [4]) | Kd (recombinant human IL-1B [5]) | IC50, rec. mouse IL-1 B, HEK blue (recombinant mouse IL-1B) | IC90, rec. mouse IL-1 B, HEK blue (recombinant mouse IL-1B) | Binder |
| --- | --- | --- | --- | --- | --- | --- | --- | --- | --- | --- | --- | --- | --- |
| 0.5 nM | – | – | – | – | – | – | – | – | – | – | – | – | 36C2 (original hybridoma antibody) (antibody, V domains shown) VH: QVQLQQSGAELARPGTSLKMSCKATGYTFTNYWIAWVKQRPGYGLEWIGSIFPGGDYTNYNEKFKGKATLTADTSSSTSYMQLSSLTSEDSAIYYCTRPYYSNYGHFDYWGQGTTLTVSS VL: not shown |
| – | 0.017 nM | 0.007 nM | 0.15 nM | 0.044 nM | 0.003 nM | 0.096 nM | 0.014 nM | 0.154 nM | 0.00556 nM | < 0.01 nM | – | – | 36C2 (recombinant chimeric antibody: mouse 36C2 variable domains, human IgG1 constant domains) (antibody, V domains shown, also called chimeric antibody 36C2) VH: QVQLQQSGAELARPGTSLKMSCKATGYTFTNYWIAWVKQRPGYGLEWIGSIFPGGDYTNYNEKFKGKATLTADTSSSTSYMQLSSLTSEDSAIYYCTRPYYSNYGHFDYWGQGTTLTVSS VL: not shown |
| – | 0.033 nM | 0.01 nM | 0.329 nM | 0.131 nM | 0.009 nM | 0.15 nM | 0.03 nM | 0.167 nM | – | – | 1.14 nM | 3.25 nM | Antibody A1 (antibody, V domains shown) VH: QVQLVQSGAEVKKPGASVKVSCKATGYTFTNYWIAWVKQAPGQGLEWMGSIFPGGDYTNYNEKFKGKVTMTRDTSTSTSYMELSSLRSEDTAVYYCARPYYSNYGHFDYWGQGTLVTVSS VL: EIVLTQSPATLSLSPGERATLSCRASESVDNSGIGFMNWYQQKPGQAPKLLIYAASNQGSGIPARFSGSGSGTDFTLTISRLEPEDFAMYYCQQNKELPWTFGGGTKLEIK |
| – | 0.04 nM | 0.016 nM | 0.495 nM | 0.125 nM | 0.036 nM | 0.262 nM | 0.026 nM | 0.205 nM | – | – | 1.08 nM | 3.98 nM | Antibody A4 (antibody, V domains shown) VH: QVQLVQSGAEVKKPGASVKVSCKATGYTFTDYWIAWVRQAPGQGLEWMGSIFPGGDYTNYNEKFKGRVTMTRDTSTSTSYMELSSLRSEDTAVYYCARPYYSNYGHFDYWGQGTLVTVSS VL: EIVLTQSPATLSLSPGERATLSCRASESVDNSGIGFMNWYQQKPGQAPRLLIYAASNQGSGIPARFSGSGSGTDFTLTISRLEPEDFAVYYCQQNKELPWTFGQGTKLEIK |
| – | 0.042 nM | 0.013 nM | 0.34 nM | 0.162 nM | 0.008 nM | 0.246 nM | 0.023 nM | 0.236 nM | – | – | 0.998 nM | 3.64 nM | Antibody A3 (antibody, V domains shown) VH: QVQLVQSGAEVKKPGASVKVSCKATGYTFTDYWIAWVRQAPGQGLEWMGSIFPGGDYTNYNEKFKGRVTMTRDTSTSTSYMELSSLRSEDTAIYYCARPYYSNYGHFDYWGQGTLVTVSS VL: EIILTQFPATLSLSPGERATISCRASESVDNSGIGFMNWYQQKPGQAPRLLIYAASNQGSGIPARFSGSGSGTDFTLTISRLEPEDFAVYYCQQNKELPWTFGQGTKLEIK |
| – | 0.013 nM | 0.013 nM | 0.11 nM | 0.11 nM | 0.003 nM | 0.068 nM | 0.013 nM | 0.127 nM | – | – | – | – | Antibody B1 (antibody, V domains shown) VH: EVQLVQSGAEVKKPGASVKVSCKASGFSFTGYYMHWVRQAPGQGLEWVGLIIPHNDYTVNNQKFKGRVTMTRDTSTSTAYMELSSLRSEDTAVYYCARSDYYGAMDYWGQGTLVTVSS VL: EIVMTQSPATLSVSPGERATLSCRASQNIGTSIHWYQQKPGQAPRLLIKYASNSIYGIPARFSGSGSGTEFTLTISSLQSEDIAVYYCQQGASWPPFTFGQGTKLEIK |
| – | 0.008 nM | 0.008 nM | 0.257 nM | 0.257 nM | 0.001 nM | 0.075 nM | 0.014 nM | 0.154 nM | – | – | – | – | Antibody B3 (antibody, V domains shown) VH: EVQLVQSGAEVKKPGASVKVSCKASGFSFTGYYMHWVRQAPGQGLEWVGLIIPHNDYTVNNQKFKGRVTMTRDTSTSTAYMELSSLRSEDTAVYYCARSDYYGAMDYWGQGTLVTVSS VL: EIVMTQSPATLSVSPGERATLSCRASQNIGTSIHWYQQKPGQAPRLLIKYASDSVYGIPARFSGSGSGTEFTLTISSLQSEDIAVYYCQQGASWPPFTFGQGTKLEIK |
| – | 0.018 nM | 0.018 nM | 0.098 nM | 0.098 nM | 0.007 nM | 0.091 nM | 0.02 nM | 0.101 nM | – | – | – | – | Antibody B4 (antibody, V domains shown) VH: EVQLVQSGAEVKKPGASVKVSCKASGFSFTGYYMHWVRQAPGQGLEWVGLIIPHNDYTVNNQKFKGRVTMTRDTSTSTAYMELSSLRSEDTAVYYCARSDYYGAMDYWGQGTLVTVSS VL: EIVMTQSPATLSVSPGERATLSCRASQNIGTSIHWYQQKPGQAPRLLIKYASDSKDGIPARFSGSGSGTEFTLTISSLQSEDIAVYYCQQGASWPPFTFGQGTKLEIK |
